Laboratory results reported in patent US20090105562A1, “SYSTEM AND METHODS FOR SCREENING OR ANALYZING TARGETS” (TAIPEI VETERANS GENERAL HOSPITAL, priority 2007, published 2009).

B1: BDNF: BDNF recombinant protein (protein, UniProt P23560 19-247, looked up)
Neurotrophic factor BDNF …: APMKEANIRGQGGLAYPGVRTHGTLESVNGPKAGSRGLTSLADTFEHVIEELLDEDQKVRPNEENNKDADLYTSRVMLSSQVPLEPPLLFLLEEYKNYLDAANMSMRVRRHSDPARRGELSVCDSISEWVTAADKKTAVDMSGGTVTVLEKVPVSKGQLKQYFYETKCNPMGYTKEGCRGIDKRHWNSQCRTTQSYVRALTMDSKKRIGWRFIRIDTSCVCTLTIKRGR

Legend:
[1] = system: neural stem cell; experiment: DA and 5-HT in dialysate of neural stem cell medium after NGF induction (microdialysis, HPLC-ED); type: cell-based; settings: after induction with polyornithine/laminin-coating plate and NGF of neural stem cell
Procedure: (§1) A microdialysis system consists of a basic microdialysis pump (CMA/100, CMA, Stockholm, Sweden), a fraction collector (CMA/140, CMA), and a microdialysis probe cemented to a Petri dish (FIG. 3). The dialysis probe was made of a dialysis membrane 30 mm in length, 150 μm in outer diameter, and a nominal molecular weight cutoff of 13,000. Ringer solution (8.6 g/L NaCl, 0.3 g/L KCl, and 0.33 g/L CaCl2) was perfused through the probe at a flow rate of 2 μl/min. Microdialysate samples were collected every 10 min. Each microdialysate of 10 μl was injected manually into the chromatographic system and was assayed on the same sampling day. The Liquid chromatography and electrochemical detection contains a model HTEC-500 LC-ED system (Eicom, Kyoto, Japan), consisting of a three-electrode cell with Ag/AgCl as the reference electrode, a counter-electrode, and a graphite electrode as the working electrode, were used to measure dopamine (DA) and serotonin (5-HT). The experiment employed a graphite working electrode with a 25-μm gasket with the applied potential set at +450 mV versus Ag/AgCl. The column used for the separation of DA and 5-HT was a PP-ODS column (4.6×30 mm, Eicom) at room temperature (25° C.). […]

[2] = system: PC-12 cells; experiment: DA and 5-HT in dialysate of PC-12 cells medium after NGF induction (HPLC-ED); type: cell-based; settings: after induction with NGF of PC-12 cells
Procedure: as §1

[3] = system: Bcl-2; experiment: Bcl-2 protein expression in NSCs by western blot and immunocytochemistry; type: cell-based, rat; settings: treatment with either agent alone
Procedure: After the treatment with IM, the cell lysates of the NSCs were collected and the concentration of protein was determined by using the Protein Assay kit (Bio-Rad, Hercules, Calif., USA). Cell extracts with sample buffer were boiled for 5 minutes and then separated by 10% SDS-PAGE gel. After electrophoresis, the gel was transferred onto a PVDF membrane for immunoblotting. The membrane was first blocked by incubation in non-fat milk at room temperature for 2 hours, then incubated with anti-Bcl-2 antibody (Upstate Biotechnology Inc, Waltham, Mass., USA), and anti-β actin (Chemicon International Inc, Temecula, Calif., USA) for 2 hours at room temperature, washed five times with Tris-Buffered Saline Tween-20 (TBST), and then incubated further at room temperature with horseradish peroxidase-conjugated secondary antibody for 2 hours. Then the membrane was washed six times with TBST and specific bands were made visible by chemiluminescence (Santa Cruz Biotechnology, Santa Cruz, Calif., USA).
(§2) Double-stranded, short interfering RNA (siRNA) of BDNF and Bcl-2 were chemically synthesized by Ambion Inc., Austin, Tex., USA). The sense and antisense sequences of BDNF were designed as follows: Sense: […]tt; Antisense: AGCTTAAAAAGAG CTGtt, starting from nucleotide 137 of the Bcl-2 sequence (accession number L14680). The sense and antisense sequences of Bcl-2 were designed as follows: Sense: GCGCUGGAUAUAACUUCUUtt; Antisense: AAGAAGUUAUAUC CAGCGCtt, starting from nucleotide 137 of the Bcl-2 sequence (accession number L14680). In this test, the siRNA control used was siRNA-Cy3 (QIAGEN; sense sequence: UUCUCCGAACGUGU CACGUdTdT-3′-Cy3 and the complement 5′-ACGUGACACGUUCGGAGAAdTdT-3′-Cy3) as an irrelevant control. The transfection of siRNA was performed using Lipofectamine 2000 (Invitrogen, Carlsbad, Calif., USA) according to the manufacturer's instructions. In brief, cells were harvested with 0.25% trypsin, 1 mM ethylenediaminetetraacetic acid (EDTA) in phosphate buffered saline (PBS) without Ca^2+ and Mg^2+, and plated in six-well plates at 10^5 per cm^2. Then 3.5 μl siRNA (100 μM solution) was mixed with 125 μl serum-free culture medium for 5 minutes at room temperature. During this incubation period, 5 μl of Lipofectamine 2000 was diluted in 125 μl serum-free culture medium. These two mixtures were combined, mixed gently, and incubated for 20 minutes at room temperature for complex formation. This 250 μl of siRNA-Lipofectamine mixture was then added into the cells in a final volume of 2.5 ml per well. The transfected cells were cultured and fed daily with fresh medium until they were assayed.
An avidin-biotin complex method was used for the immunohistochemical staining in the differentiated NSCs. Following washes with the 3% hydrogen peroxide, sodium azide and antigens were retrieved using a microwave. Each slide was then treated with antibodies for Bcl-2 (Upstate Biotechnology, Waltham, Mass., USA), Nestin (Chemicon, Temecula, Calif., USA), 4′, 6-diamidino-2-phenylindole (DAPI; Chemicon, Temecula, Calif., USA) and MAP2 (Chemicon, Temecula, Calif., USA). Immunoreactive signals were detected with a mixture of biotinylated rabbit anti-mouse IgG and Fluoresave (Calbiochem, La Jolla, Calif., USA) under confocal microscopy (Olympus, FV300). Each individual sample was analyzed in triplicate. Furthermore, apoptotic cells were identified by the TUNEL method (In Situ Cell Death Detection Kit, POD, Roche Boehringer Mannheim Corp., IN, USA) as described in Chiou et al., J. Immunol. 167, 4098-4103, 2001. Briefly, the cells with cover slips were washed with 1× phosphate buffered saline (PBS), fixed with 4% of paraformaldehyde for 10 minutes, permeabilized with 0.1% of triton X-100 for 5 mins, and incubated with the TUNEL reagent provided for 1 hour. Chromogenic development was then applied with 3-amino-9-ethyl-carbazole, and slides were counterstained with H & E stain. […]

[4] = system: LPS-treated NSCs; experiment: Cell survival rate of LPS-treated NSCs; type: cell-based, rat; settings: vs only LPS-treated NSCs; LPS 100 ng/ml
Procedure: (§3) IM was purchased from Sigma Chem. Co., St Louis, Mo., USA. NSCs were seeded on 24-well plates at a density of 2×10^4 cells/well in medium, followed by methyl thiazol tetrazolium assay (MTT assay) (Sigma-Aldrich Co., St Louis, Mo., USA) for cell viability. NSCs were incubated with 0.25 mg/ml MTT for 4 hours at 37° C. and the reaction was terminated by the addition of 100% isopropanol. The amount of MTT fromazon product was determined using a microplate reader and the absorbance was measured at 560 nm (SpectraMax 250, Molecular Devices, Sunnyvale, Calif., USA). NSCs were exposed to 0, 1, 2, 5, 10, 20, 30, 40, 50, 100, 200, and 300 μM of IM for 1, 3, 5, and 7 days, respectively. The activities of caspases 8 and 3 (Medical and Biological Laboratories Co., Ltd., Nagoya, Japan), and the concentration of IL-6, IL-1 and TNF-α (Pharmingen, San Diego, Calif., USA) were determined by ELISA kits and quantified by reading at 490 nm (MRX; Dynatech Laboratories, Chantilly, Va., USA). Each individual sample was analyzed in triplicate.
as §2, with “Then 3.5 μl siRNA (100 μM solution) was mixed with 125 μl serum-free culture medium for 5 minutes at room temperature. During this incubation period, 5 μl of Lipofectamine 2000 was diluted in 125 μl serum-free culture medium. These two mixtures were combined, mixed gently, and incubated for 20 minutes at room temperature for complex formation. This 250 μl of siRNA-Lipofectamine mixture was then added into the cells in a final volume of 2.5 ml per well. The transfected cells were cultured and fed daily with fresh medium until they were assayed.” left out

[5] = system: LPS-treated NSCs; experiment: LPS-induced apoptotic activity in NSCs, caspase 8 and 3 ELISA; type: cell-based, rat; settings: vs only LPS-treated NSCs; p<0.05
Procedure: as §3, §2

[6] = system: LPS-treated NSCs; experiment: ELISA of IL-1β, IL-6 and TNF-α in LPS-treated NSCs; type: cell-based, rat; settings: vs only LPS-treated NSCs; IM 3 μM; p<0.05
Procedure: as §3, §2

Row | apoptotic activities in LPS-treated NSCs [5] | Molecule | 5-HT concentration in dialysate ([1]; basal 0.18 ng/ml) [ng/mL] | DA concentration in dialysate ([1]; basal 6.04 ng/ml) [ng/mL] | 5-HT concentration in dialysate ([2]; basal 0.18 ng/ml) [ng/mL] | DA concentration in dialysate ([2]; basal 6.04 ng/ml) [ng/mL] | Bcl-2 expression in NSCs [3] | cell survival rate in LPS-treated NSCs [4] | IL-1β production in LPS-treated NSCs [6] | IL-6 production in LPS-treated NSCs [6] | TNF-α production in LPS-treated NSCs [6]
1 |  | NGF: NGF used to induce neural stem cells / PC-12 cells | 2.84 | 46.9 | 2.94 | 50.06 |  |  |  |  | 
2 | significantly inhibited | B1 |  |  |  |  | activate | significantly increases | significantly inhibited | significantly inhibited | significantly inhibited
